From patent US20210063414A1, “METHODS FOR PREVENTING AND/OR TREATING BONE LOSS CONDITIONS BY MODULATING IRISIN” (Dana-Farber Cancer Institute, Inc., priority 2018, published 2021) come the findings set out here.

Experiment [1] has as its system integrin αV/β5. The experiment is described as follows: Protein-protein binding assay: irisin with his-tag integrins, Ni-NTA co-precipitation and immunoblot. The arrangement: species or system murine and human. As to conditions: 100 nM irisin, 5 nM his-tag integrin. Here is the method:
100 nM irisin was incubated with 5 nM indicated his-tag integrins followed by immunoprecipitation using Ni-NTA agaroses. Precipitated integrins and co-precipitated irisin were analyzed by immunoblot analysis. […] HEK293T cells were seeded and incubated until 50% cell density. The cells were transfected with 0.1 μg plasmids of indicated integrins. After 48 hours, the cells were incubated with Freestyle293 medium for 3 hours and were treated with indicated concentration of irisin for 5 minutes. Cells were lysed to detect the indicated protein level using immunoblot analysis. […] Sclerostin mRNA level was analyzed by qRT-PCR. […]
100 nM irisin was incubated with 5 nM indicated his-tag integrins followed by immunoprecipitation using Ni-NTA agaroses. Precipitated integrins and co-precipitated irisin were analyzed by immunoblot analysis. […] Cells were treated and analyzed as FIG. 14B except using plasmids encoding integrin α5/β1 or integrin α11/β1 (FIG. 15C) integrin αV/β1(FIG. 15D).
100 nM flag-tagged mammalian irisin was incubated with 5 nM of the indicated his-tag integrins in a final volume of 600 μl in 1.5 ml Protein LoBind Tubes (Eppendorf®, 022431081) for 5 minutes at room temperature under rotation. […] Precipitated integrins were detected by immunoblot analysis against his tag. Co-precipitated irisin was detected by immunoblot analysis against flag-tag.
(In western blotting, separated proteins are transferred to a membrane and probed.)

Experiment [2] concerns the target T1, MLO-Y4 cell surface proteins (Mus musculus, UniProt Q6ZPE2).
T1 construct: endogenous in cells; host or cells: MLO-Y4
The experiment can be described thus: Crosslinking/co-immunoprecipitation/mass spectrometry (TMT quantitative proteomics) to identify irisin receptors. The conditions noted are these: co-precipitated protein Sbf1 (MTMR5_MOUSE). The experiment is classed as binding. How it is done: (§1) MLO-Y4 cells were seeded on 30×150 mm type-I collagen coated dishes as described in cell culture experiment. At 60% cell density, medium was switched to FreeStyle™ 293 Expression medium. After 4 hours incubation, the cells were chilled on ice for 10 minutes, followed by treatment of 10 nM his-tag irisin or his-tag adipsin for 20 minutes. The cells were then incubated with 1.5 mM DTSSP for 30 minutes on ice to do cross-linking, after washing with 15 ml cold PBS twice. The cross-linking was quenched by addition of a final concentration of 20 mM Tris-pH 7.5. The cells were then harvested and homogenized in 1 ml RIPA buffer containing proteaseinhibitor cocktailand phosphatase-inhibitor cocktail. Whole-cell lysates were homogenized by 10 times passages through a 22G needle fitted to a 3 ml syringe. Homogenized samples were rotated gently in cold room for 20 minutes followed by 15,000×g centrifugation for 10 minutes. After addition of a final concentration of 10 mM imidazole, supernatants were incubated with 100 μl Ni-NTA agarose for 1 hour. After centrifugation at 500×g for 1 minute, the supernatants were aspirated and 1 ml cold RIPA buffer containing 10 mM imidazole were added to the agarose. After 10 minutes rotation in cold room, the supernatants were aspirated and 1 ml cold RIPA buffer containing 30 mM imidazole were added to the agarose. After repeating the washing 3 times, 0.8 ml RIPA buffer containing 250 mM imidazole was added and the agarose was gently rotated in a cold room for 20 minutes. After centrifugation at 1000×g for 2 minutes, the supernatants were transferred to 1.5 ml tube and incubated with 100 μl 0.2% sodium deoxycholate and 100 μl 10% trichloroacetic acid in ice for 1 hour. After centrifugation at 12,000×g for 10 minutes at 4° C., the supernatants were removed and 1 ml cold acetone was added to the pellets followed by vortexing for 10 seconds. After one more washing with cold acetone, the pellets were dried at 37° C., and 39 μl PBS and 13 μl 4×NuPAGE LDS were added to the pellets with a final concentration of 5 mM DTT. Solubilized proteins were incubated at 65° C. for 20 minutes followed by incubation with a final concentration of 14 mM iodoacetamide for 45 minutes in the dark. 38 μl samples were loaded to 4-12% gradient SDS-PAGE for separation followed by Coomassie Blue staining. The gels were submitted to quantitative proteomics.
(§2) For in-gel digestions, gels were stained with Coomassie Blue and were excised into 8 equal segments for control and irisin lanes. Gel pieces were destained and dehydrated with 100% acetonitrile, vacuumed dried, and digested in 25 mM HEPES (pH 8.5) with 500 ng sequencing grade trypsin (Promega) and incubated for an overnight at 37° C. (Shevchenko et al. (1996) Anal. Chem. 68:850-858). Digests were treated with 1% formic acid and purified using C18 Stage-Tips as previously described (Rappsilber et al. (2007) Nat. Protoc. 2:1896-1906). Peptides were eluted with 70% acetonitrile and 1% formic acid, then dried using a speedvac. Isobaric labeling of digested peptides was accomplished using 6-plex tandem mass tag (TMT) reagents (Thermo Fisher Scientific, Rockford, Ill.). Reagents, 5.0 mg, were dissolved in 252 μl acetonitrile (ACN) and 5 μl of the solution was added to the digested peptides dissolved in 25 μl of 200 mM HEPES, pH 8.5. After 1 hour at room temperature, the reaction was quenched by adding 1 μl of 5% hydroxylamine. Labeled peptides were combined and acidified prior to C18 Stage-Tips desalting.
(§3) All LC-MS/MS experiments were performed on an Orbitrap Fusion™ Lumos mass spectrometer (Thermo Fisher Scientific, San Jose, Calif., USA) coupled with a Proxeon EASY-nLC™ 1200 LC pump (Thermo Fisher Scientific). Peptides were separated on a 100 μm inner diameter microcapillary column packed with 35 cm of Accucore™ C18 resin (1.8 μm, 100 Å, Thermo Fisher Scientific). […]

For experiment [3], the target named is T2, MLO-Y4 cell surface proteins (Mus musculus, UniProt Q99KR7).
T2 construct: endogenous in cells; host or cells: MLO-Y4
Described as above. The class given is binding. As to conditions: co-precipitated protein Ppif (PPIF_MOUSE). Here is the method:
as §1, §2, §3

Experiment [4] addresses T3, MLO-Y4 cell surface proteins (Mus musculus, UniProt Q9JHS4).
T3 construct: endogenous in cells; host or cells: MLO-Y4
The experiment is described as above. The experiment is classed as binding. As to conditions: co-precipitated protein Clpx (CLPX_MOUSE). Here is the method:
as §1, §2, §3

Entries after “also recorded” stand apart in the source; their conditions may differ.

T1 sequence (Q6ZPE2 whole entry): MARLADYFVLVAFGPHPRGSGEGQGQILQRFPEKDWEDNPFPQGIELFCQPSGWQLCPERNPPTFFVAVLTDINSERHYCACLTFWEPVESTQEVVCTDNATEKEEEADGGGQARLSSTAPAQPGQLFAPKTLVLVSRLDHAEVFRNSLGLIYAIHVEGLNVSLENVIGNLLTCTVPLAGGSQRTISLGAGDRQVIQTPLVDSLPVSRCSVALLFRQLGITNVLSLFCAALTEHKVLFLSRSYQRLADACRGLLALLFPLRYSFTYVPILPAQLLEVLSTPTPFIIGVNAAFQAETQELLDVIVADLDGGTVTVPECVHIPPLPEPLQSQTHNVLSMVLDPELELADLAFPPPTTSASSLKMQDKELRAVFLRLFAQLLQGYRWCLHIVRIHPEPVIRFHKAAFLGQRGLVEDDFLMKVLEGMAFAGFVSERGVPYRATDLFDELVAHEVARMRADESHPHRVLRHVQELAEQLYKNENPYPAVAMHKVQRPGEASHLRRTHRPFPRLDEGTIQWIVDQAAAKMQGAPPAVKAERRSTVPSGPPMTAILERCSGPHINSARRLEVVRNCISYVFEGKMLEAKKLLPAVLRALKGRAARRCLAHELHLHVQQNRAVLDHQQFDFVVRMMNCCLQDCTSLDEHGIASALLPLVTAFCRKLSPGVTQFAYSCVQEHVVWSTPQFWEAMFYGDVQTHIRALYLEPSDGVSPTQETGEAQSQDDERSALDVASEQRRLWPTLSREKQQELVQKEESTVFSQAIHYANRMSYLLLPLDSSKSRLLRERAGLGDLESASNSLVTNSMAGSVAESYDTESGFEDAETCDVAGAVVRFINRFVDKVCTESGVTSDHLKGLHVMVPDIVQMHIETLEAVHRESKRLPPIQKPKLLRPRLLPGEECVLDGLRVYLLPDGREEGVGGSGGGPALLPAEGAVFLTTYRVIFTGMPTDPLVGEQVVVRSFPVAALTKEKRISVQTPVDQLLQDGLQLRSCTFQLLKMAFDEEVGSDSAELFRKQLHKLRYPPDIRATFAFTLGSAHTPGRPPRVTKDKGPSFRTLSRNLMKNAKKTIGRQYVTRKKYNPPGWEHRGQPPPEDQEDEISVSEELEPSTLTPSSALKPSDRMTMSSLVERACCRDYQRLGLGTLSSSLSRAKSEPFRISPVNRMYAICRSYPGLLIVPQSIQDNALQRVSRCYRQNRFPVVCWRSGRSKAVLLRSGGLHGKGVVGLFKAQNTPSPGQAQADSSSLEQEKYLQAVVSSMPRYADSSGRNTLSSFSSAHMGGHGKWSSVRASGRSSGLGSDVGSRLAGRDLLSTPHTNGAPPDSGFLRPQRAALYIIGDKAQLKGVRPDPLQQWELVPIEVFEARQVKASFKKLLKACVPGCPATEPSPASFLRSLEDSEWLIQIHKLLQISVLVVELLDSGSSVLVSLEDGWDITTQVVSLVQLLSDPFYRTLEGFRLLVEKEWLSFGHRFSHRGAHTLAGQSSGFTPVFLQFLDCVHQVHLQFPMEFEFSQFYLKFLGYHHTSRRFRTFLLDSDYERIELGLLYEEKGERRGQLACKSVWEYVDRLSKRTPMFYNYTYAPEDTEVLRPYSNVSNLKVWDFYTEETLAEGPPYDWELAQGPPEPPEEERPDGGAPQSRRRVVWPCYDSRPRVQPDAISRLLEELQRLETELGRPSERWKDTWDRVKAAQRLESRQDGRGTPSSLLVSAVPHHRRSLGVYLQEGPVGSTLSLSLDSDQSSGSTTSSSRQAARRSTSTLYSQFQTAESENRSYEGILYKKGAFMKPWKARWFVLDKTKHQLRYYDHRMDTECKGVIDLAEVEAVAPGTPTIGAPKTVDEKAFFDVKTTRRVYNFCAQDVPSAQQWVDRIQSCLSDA
T3 sequence (Q9JHS4 57-634): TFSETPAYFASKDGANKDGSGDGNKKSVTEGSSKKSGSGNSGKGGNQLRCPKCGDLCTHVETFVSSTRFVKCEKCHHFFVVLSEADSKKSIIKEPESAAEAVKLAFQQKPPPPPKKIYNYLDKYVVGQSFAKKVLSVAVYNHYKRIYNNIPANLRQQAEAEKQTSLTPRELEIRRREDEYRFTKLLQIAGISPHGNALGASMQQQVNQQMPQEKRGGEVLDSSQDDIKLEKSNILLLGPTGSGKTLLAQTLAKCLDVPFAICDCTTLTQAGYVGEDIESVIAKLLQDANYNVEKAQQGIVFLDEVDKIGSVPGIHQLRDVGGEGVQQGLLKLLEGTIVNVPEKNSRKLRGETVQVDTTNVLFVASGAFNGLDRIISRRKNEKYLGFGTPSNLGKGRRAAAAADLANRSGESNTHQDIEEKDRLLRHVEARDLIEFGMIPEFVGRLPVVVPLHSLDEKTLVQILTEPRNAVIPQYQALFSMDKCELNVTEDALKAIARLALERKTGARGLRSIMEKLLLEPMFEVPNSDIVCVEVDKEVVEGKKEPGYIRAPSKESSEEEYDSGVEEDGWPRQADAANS
T2 sequence (Q99KR7 30-206): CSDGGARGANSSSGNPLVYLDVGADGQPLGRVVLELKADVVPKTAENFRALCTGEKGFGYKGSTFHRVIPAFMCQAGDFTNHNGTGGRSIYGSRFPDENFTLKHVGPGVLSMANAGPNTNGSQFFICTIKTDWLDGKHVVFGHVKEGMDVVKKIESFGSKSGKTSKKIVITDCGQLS

B1: irisin: secreted cleaved form of FNDC5; recombinant human/mouse irisin with C-terminal his tag produced in HEK293 cells (protein)
chain: DSPSAPVNVTVRHLKANSAVVSWDVLEDEVVIGFAISQQKKDVRMLRFIQEVNTTTRSCALWDLEEDTEYIVHVQAISIQGQSPASEPVLFKTPREAEKMASKNKDEVTMKE
modifications: left off: small tags and cut ends
notes: secreted cleaved form of FNDC5; recombinant human/mouse irisin with C-terminal his tag produced in HEK293 cells
For B1, the “extent of binding of irisin to integrin complex” value in experiment [1] is on record as “by far the highest extent of binding; also recorded: highest apparent affinity”. Besides, the figures for the TMT signal-to-noise ratio in experiment [2], in experiment [3] and in experiment [4] were 37.3228, 49.7858 and 851.066, respectively. The “irisin/adipsin TMT signal-to-noise ratio” value in experiment [2] worked out at 0.525; in experiment [3], 0.199; in experiment [4], 0.561.
